Measurements: publication PMC3187862

Target: T1, DoeX (AsnC/Lrp family) (Halomonas elongata DSM 2581T, UniProt E1V7V9 1-158)
T1 sequence: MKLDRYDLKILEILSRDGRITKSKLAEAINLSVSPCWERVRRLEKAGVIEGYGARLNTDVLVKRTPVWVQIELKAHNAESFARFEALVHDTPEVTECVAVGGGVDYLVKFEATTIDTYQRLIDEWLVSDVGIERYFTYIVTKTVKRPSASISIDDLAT
Experiment: EMSA

B1: F3 (dsDNA)
DNA 1: AGAGGCAGCCGGATATCGGTGACATGATCGTTTGGCGAGCGATTTC
DNA 2: GAAATCGCTCGCCAAACGATCATGTCACCGATATCCGGCTGCCTCT
Does B1 bind?
Result: binds
